In the DeepSol protein solubility set:

Test: soluble on expression in E. coli; label from the status in PepcDB or PDB records

Sequence	soluble on expression in E. coli
MSLTESARATVSLGFTAELFPPGTHMCYIYNDERERLEIMSEFVRSGIESGEKIAYFVEEMSPQALRDYLAGLGIVPTEEAQLEIAPSVDVYCPEGRFSPDRMLGRLRSAYEDGIREGFNGVRLTGEMHWALRGLPGSERLAEYESRINLLVVDCPLTVICQYDANHFDGATLFKILNAHPMMIVRGQVVHNPYYLSPEEYFARYPVPNVEGHHHHHH	soluble
MGSDKIHHHHHHMADAATLKARVAQIFREAWTTREGQKVPDPGDVKLGNDAVEFEKATILYADLSGSTDLVNAHGWTFAAEIYKTYLHCAATIIRDEGGSIVSYDGDRVMGVFIGDPQTTPAARAGLKINYAVQEIINPALKAQYPSNTFVVRQVVGIDTSPIRAARTGVRGDNDLVWVGRAANYAAKLTELKLDERTWITKEAYDRLTDDAKFGGANRTLMWKFYRWSQMNDHPIYGSTWRWSL	not soluble
MGSDKIHHHHHHMKKLLRNLFGSGREEEKRSASDAMSGREQIVTNSEKSNLSTDPDHVNRQADTLKFDAIRAMNMGELVFATEALRKAMELRPEFETRYYLTEALLRRHLTEEALAQMNLLLEEVPMHTATLLNRAKLRLEQNDPSRALEDCGTGIESTSELEEQALFLYYGASAMKDMKNLKDALCLLKQAIEKNDAFIPARLLRARILIDLERYEEATQDLDWVAASDPEEEQVPMLRARLFMLEGKQQNAIQAYEELLSLDPFNEEGHCGIATLMIKEGRSAEAETFLREAIEEMPVQRNLILMLVEILENKGQTQEAAEWRAKLPEAEVESEAVNFNDLYKGNLY	not soluble
MLIAITGTPGVGKTTVAKLLAKKLNYEYVSLKDFALEKGCGRRVNDEVEVEIDELAYFIERELKGKNAVLDGHLSHLMPVDLVVVLRAHPKLIGERLRERGYDREKIGENVEAELVDAVLIEAIEEHENVIEVDTTNKSPEDVVEEIVSLINSGIKKRVGIVDWSEVYDEIIPYLRLGGELEHHHHHH	soluble
VADSASTVTNEFSADHPFIYVIRHVDGKILFVGRYSSPTTN	soluble
MGSDKIHHHHHHMGNILWVASYPKSGNTWVRAFLENYIQNQAQPIDINTMHTISTAESAAHRYQHYLPKDKTATTELTLEEVSVLRPQVQADIAHQANGTTFVKTHNYLGEYNGHPLHNSSVTSGAIYVVRNPLDVAISMANYFGYSIDEAIAYMAEEMTGTPNEAPHVPQIITSWSMHVSSWTADDASKLILRYEDMLDDPKKVFRKVESFLGLKKDPVRLKNAIKHSSFAQLKAQETKLGFVEKHENANAFFRNGGKHQWKTKLTPEQVQKIVATHYEQMKRFKYLPAGM	not soluble
MTVASLRGRTGTPVPKREVELRATWSSECVTRPMTEEERIKYGVAIPPKITNADGVQERRPILLPKKSKYAHVTKELVLTEFAKGKTAVQIEREQGMKPNTLYARLRAWGIRSPHSPKLRNETAAPPPSSSDTHRTDNRIDDIFWDVQIELRRAMSRFPRFNSAHEGYAVVLEELDEAWQAIKANDLIHARLGNDAGGRDGDPFPARPSDRRKGGGTATMTKAERSKSKRTATERTKLAIAPNPNRCFVLFSSTYLTAGSAIVSLNSLVRQLEKHPADHPIEDIRLDREALLMEILFVPEGGDPHAKHRSGPDQGI	not soluble
MGSDKIHHHHHHMYEDELIFLEKTASIDIFEYSEQGIKTILDSPKHYNHGLMIRAAKLSREGFYSLVKYNSSYMLLVPLAKDKGLILSPKIDSLNNSESSFSNIDFINHSTSLAELAYFLYTKESAPNWNRVIYNLNEISDPVKQVQPMKNLHAFHRYANKMVDYFAQLDDKKFKLYINKMKSCQVFGDTLTTSNVIRGEKDILIDIISKLTDRSEKEGLPFEKVVFIQSVSVQKIELQANILNFNGWLEEIPYAYFNELKKWRENLFIDKADKIERYLKLNSRENIKLKDISKELGISEQSLNTIFKKKYGMTTKKYLIELKIENDKELLTTTELKIHDISEYLSFIDESYFISTFNKSCGMTPSKYRQNYIDKLLNKKSV	not soluble
DGFRIAFISDLHYKSLFKEKGLESLVRLLNAQHADVLLMGGDYQEGCQYVPELFAALAKVKTPMGTYGVMGNNDYERCHDEIIREMQRYGMRPLEHQIDTLRRDGAQIILAGVRNPFDLANNGVSPTLSLSPSDFVILLVHTPDYAEDVSVANSDLVLAGHTHGGQVRILGYAPIIPSHYGSRF	not soluble
MMKDAVVITVGNEVLKGRTVNTNASFIGNFLTYQGYRVKLGLTVMDDLEDISWAFKTAMDRGDVIVSSGGLGPTFDDMTVEGFAKAIGSDNKLNQDALAMIEEKYKNIEITPERKKMAMMPEVCKPIRNPVGTAPGLLCSVGGKKVVILPGVPMEMQALLESMRDSLAIENSCYFDESINITGIMESTFAPYVERVMREVDGVYVKSHPKNIEVVNPSLEIEVSAYDVSQEAARKKVKDAIARIRAYAETILDSKDK	not soluble
GVTKEIRIPTLEECDVCHGSGAKPGTQPQTCPTCHGSGQVQMRQGFFAVQQTCPHCQGRGTLIKDPCNKCHGHGRVERS	soluble
MISEKPAAKRIQSGGCAIHCQDCSISQLCIPFTLNESELDQLDQIIERKKPIQKGQELFKAGDELRSLYAIRSGTIKSYTITEQGDEQITAFHLAGDLVGFDAITGDQHPSFAQALETSMVCEIPYEILDDLSGKMPKLRQQIMRLMSNEIKGDQEMILLLSKKNAEERLAAFLYNLSTRFSQRGFSPREFRLTMTRGDIGNYLGLTVETISRLLGRFQKSEILSVKGKYITILNHAELMELAGVSKESK	soluble
SSPTMTSSLRLRTLILGKQRWIKPRNFYQFCDKYAIGYENKKNNSLRNHKILRFNDGSVANYRIYEFEIYNFNSDSWKVFDFTPDWDISFTDLSVSLKGYTYWLIRSNGLIQEYYARSLRKMMIKNY	soluble
MGSDKIHHHHHHMNFTMNFPGLKDTFITKVEEVGEIVRLYVEMERKVHRCPKCQKRTKKVHDYRIQKIKHLKWFERQTQIFYKRRRYVCACGKRFAENNSFVERYQRTSIEWNQAVAIRAIKGKTFKETAENYGSSATTIVRRFDQISSSEIRPVEELPAIIAIDEYKGDTKEGKYQLIIADAVTKEPLDILPNRYKRTIKDYLRRHGSKVQMVIMDMSPSFKAAVQEALGRPVIIADRFHFCRYIYWALDGVRRRVQKDFHAYDRKKCKRMKHVFHKENSRLTEEERWYLDRYLKMSTELQKAYELKEAYQDWFKRSKEIGATQIERVKKELKAIYKLVKNSGIPEMCRAIGTFENWQTEILNSFAYGYSNGFLEGINNSTKVLKRNAFGFRSYERFRAKILLTHKYKRIGVHIG	not soluble
MGSDKIHHHHHHMREEWLFSRYLNRKRVQRAASLGAGRAETEIALLELGAVEHFDLFDVSSVGIEYAKSIAEEKGFGHKVTCHVGPIGCAELNENTYDLITFVASLHHMEPLAETLERANRALTQHGIIWCANEYIGPDRFDYPVAHAAIAKSFFQQIPPGLRNHWHRELQFPTPQEVAEVDPTEAPCSSKIEPTMRDMFPALEIMPLYGAFAFMVFWGLNHDALYETPEGTELTRFILGMDKALTDAGILPTYFAHIIARKNNAPRQQIHRPGRHSSALLYRYAQRAASILRHLKIR	not soluble
MIKLGWASFSNTEFAQDIFIKFANQFYKQDDAGTILFELKKTLGVNQLDEIEKNKKVIIVNQFQNSLGKFLLFNKENTKRINSLANEHISSFLKKIFRLSGFKDMLIDVQHHKKLQKCLLREIHLLVCLINSNQFSDELMQIIEWYQYLKKHSSKLFVITASSDKKPVIEPTINEYKAIFGEYLSSFHLDLKNNQSNDLFQKLLDQIKIKATSKTSLR	soluble
GSHSMKYFYTSMSRPGRGQPRFIAVGYVDDTQFVRFDSDAASQRMEPRAPWVEQEGPEYWDRETRNMKTETQNAPVNLRTLLRYYNQSEAGSHTLQRMVGCDLGPDGRLLRGYEQYAYDGKDYIALNEDLRSWTAADVAAQNTQRKWEAADVAESMRAYLEGQCVEWLPRYLEKGKETLQRTDPPKTHVTHHPVSDHEATLRCWALGFYPAEITLTWQRDGEDQTQDTELVETRPAGDGTFQKWAAVVVPSGEEQRYTCHVQHEGLPKPHTLKWEPHH	soluble
MGSDKIHHHHHHMFNSEIKEKYLDTLSEGMVMQMRPIFAKAEITETLYNKDIYDFTSMQILELIRSFDQTTIGSVRRTLALLSLYIDWAISYKLSKGLTNLARTISEEELYECLGDKKLYITYSELEEMENQLVNYQSKAVLRLLFEEVSGLAHSELLSLTKKQVEDAMLNGNVLTLYDSKHGERKLKVSSECLVIALNAAQETKYKLKNGKAKGQTKEVFLVENDYVVKTKRTSNKGDGQASKFVITNLITDISEFFKINFLTPNTIVRSGHLYRAYQLYKEKGVIDNSVRYQIIDDFNLRVKSKYRAVYSMQDYINEEEVNKYYAEELGLKETTI	not soluble
MSSSIPRVYSLGNSAMTYLLALRIAQLPSQPKVPSVVLLLNDQKKLNRFLNNDSKIIVKSSNNNKETYHRQFMASCVPPILSNGEIAPIENLIVSDPSSKFITAQLSKYNKSLRPETNILFLNPSLNLLEHLHRYRWRFDEARPNLFMGFTTPVDVGTIHQEFQLSLKVKGRIQFHIAKIDGFPRMSSTGKSASLSLRGDRQKNEKENNAFYKLFREISRLRSGIGSDLVSFDLHVHGFQDLFFTELEKLILESCTEPLLAVYDCVYKKELLKIPGAQDIIKKLISEQLSIIDRSYPSLNTNPNYSVIFDKERIFSLVMRDLEVNGHKRAKLAQSLNQLNQTNINELNGFFVSLGKYKKCNCKWNDILLTLIKGKQFITKQKALDYHYL	soluble
MVVRVDETTAPLFRQIAALIEDSIVEGSLSSGERAPSTNELAAFHSINPATARKGLQLLVDAGVLEKKRGLGMFVTDNAVELIRGRRRDDFAAAYLAPLVDEAVKLTISKTELHNLIDRVAESRGLYE	soluble
MSYQFTELKEELIIKKIVSLHYFEYMSDFTFPGESHNFWEFLYVDKGELQVTADREKFILRQGQIIFHRPNEFHALAANNVIAPNLVVISFEAGEPCMAFFEHKILTVGESERNLLSQIIAEARETFDGPMDDPYMEVLSRRESIPFGAEQMIKIHLEQFLIQLFRNFSGTLAFGENHKLNGAHAPGKSPALADGNELFSDILDYLDRNIGKSLTVEKICRDNLIGVSQLKKLFRTYQGSGVMECFNQMKINAAKQMIRNQQMNFTQIADALGYTSVHYFSRQFKKLTDMTPTEYRASIMLRAKRPQRKHL	not soluble
MNNSGADEIGKLFVGGLDWSTTQETLRSYFSQYGEVVDCVIMKDKTTNQSRGFGFVKFKDPNCVGTVLASRPHTLDGRNIDPKPCTPRGMQPERTRPKEGWQKGPRSDNSKSNKIFVGGIPHNCGETELREYFKKFGVVTEVVMIYDAEKQRPRGFGFITFEDEQSVDQAVNMHFHDIMGKKVEVKRAEPRDSKSQAPGQPGASQWGSRVVPNAANGWAGQPPPTWQQGYGPQGMWVPAGQAIGGYGPPPAGRGAPPPPPPFTSYIVSTPPGGFPPPQGFPQGYGAPPQFSFGYGPPPPPPDQFAPPGVPPPPATPGAAPLAFPPPPSQAAPDMSKPPTAQPDFPYGQYAGYGQDLSGFGQGFSDPSQQPPSYGGPSVPGSGGPPAGGSGFGRGQNHNVQGFHPYRR	soluble
SDSPEQESADDALKRIVDGFQHFRREVFPEQQALFKKLANSQRPRAMFITCADSRIVPELITQSSPGDLFVTRNVGNVVPPYGQMNGGVSTAIEYAVLALGVHHIIVCGHSDCGAMRAVLDPQTLERMPTVKAWLRHAEVARTVVADNCDCGASHDTLGVLTEENVVAQLDHLRTHPSVASRLASGQLFIHGWVYDIESAQIRAYDAKQGRFLPLDGEHPVPMATPAPRYLSS	not soluble
MGSDKIHHHHHHDDDIIGALLEGKMPQATPVPPPTTVAATVASIDPPALKPAVDPRWVHLHNVHTGEKLEAVYWENGDYVPDAVSALDKVLRDYRNDEVHPIDRGLYDLLDQIARKTQSKGPFQVISGYRSPATNRLLSKRSGEVAKKSLHMDGKAMDIFLEDVELKHVRAAALDLSVGGVGYYPTSNFVHVDVGPVRKWTGT	not soluble
